This is an account of results in US20210395344A1 (TWIST BIOSCIENCE, published 2021).

In experiment [1] the target is T1, SARS-CoV-2 Spike Glycoprotein S1 (subunit 1) (SARS-CoV-2, UniProt P0DTC2 16-685).
T1 construct: also called S1 Monomer; SARS-CoV-2 S1
Briefly: column DC/S1 (format not explained).

Experiment [2] addresses T1, SARS-CoV-2 Spike Glycoprotein S1 …. Briefly: column Fc/S1 (format not explained).
Experiment [3] shares this target. Briefly: screening phage ELISA, mean. Background: An ELISA detects its analyte on a solid surface through an enzyme-linked reagent.
For experiment [4] the target is unchanged.
The target is the same in experiment [5]. Kind of experiment: screening phage ELISA, mean. The source holds these as a separate data set.
The next experiment deals with human ACE2 (human, UniProt Q9BYF1 18-740).
Sequence of human ACE2 (Q9BYF1 18-740 limits assumed): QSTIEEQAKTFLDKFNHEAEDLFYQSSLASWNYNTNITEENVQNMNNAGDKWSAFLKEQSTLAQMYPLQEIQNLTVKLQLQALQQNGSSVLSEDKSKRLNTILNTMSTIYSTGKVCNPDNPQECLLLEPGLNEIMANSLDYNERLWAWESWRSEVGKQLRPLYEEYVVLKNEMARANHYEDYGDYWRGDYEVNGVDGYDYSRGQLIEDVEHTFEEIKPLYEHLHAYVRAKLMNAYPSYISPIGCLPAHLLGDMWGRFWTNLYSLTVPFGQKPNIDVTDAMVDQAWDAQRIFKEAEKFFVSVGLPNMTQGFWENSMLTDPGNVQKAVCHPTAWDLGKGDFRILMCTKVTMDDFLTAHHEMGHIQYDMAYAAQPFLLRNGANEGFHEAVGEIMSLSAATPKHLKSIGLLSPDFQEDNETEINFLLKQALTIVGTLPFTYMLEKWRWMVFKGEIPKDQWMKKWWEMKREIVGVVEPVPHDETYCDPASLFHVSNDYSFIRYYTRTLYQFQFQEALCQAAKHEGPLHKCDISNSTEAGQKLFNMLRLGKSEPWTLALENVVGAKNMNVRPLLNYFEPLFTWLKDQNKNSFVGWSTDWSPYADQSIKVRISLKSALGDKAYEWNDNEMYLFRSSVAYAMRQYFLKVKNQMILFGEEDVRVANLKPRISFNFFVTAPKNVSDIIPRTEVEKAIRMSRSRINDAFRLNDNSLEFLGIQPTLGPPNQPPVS
Experiment [6] addresses T1, SARS-CoV-2 Spike Glycoprotein S1 …. Kind of experiment: ELISA binding titration.
Experiment [7] has the same target. Kind of experiment: antibody kinetics, sensorgrams with fits; column S1.
Experiment [8] has as its target T2, SARS-CoV-2 S protein trimer (SARS-CoV-2, UniProt P0DTC2 16-1213). Briefly: column DB/S-T (format not explained).
Experiment [9] deals with T2, SARS-CoV-2 S protein trimer. Kind of experiment: column Fc/S-T (format not explained).
Experiment [10] deals with T1, SARS-CoV-2 Spike Glycoprotein S1 …. Kind of experiment: column Inhibitor IC50 (assay not explained).
A further experiment concerns the target SARS-CoV-2 S1 RBD (SARS-CoV-2, UniProt P0DTC2 319-541).
Experiment [11] concerns the target T1, SARS-CoV-2 Spike Glycoprotein S1 …. Briefly: column DC/S1 (format not explained); clone 1-27.
For experiment [12], the target named is T2, SARS-CoV-2 S protein trimer. Briefly: column DC/S-T (format not explained).

Read-outs that look alike come from different tables or passages of the source.

B1: 1-32 (antibody, V domains shown)
VH: EVQLLESGGGLVQPGGSLRLSCAASGFTFSSYAMYWVRQAPGKGLEWVSAISGSGGSTFYADSVKGRFTISRDNSKNTLYLQMNSLRAEDTAVYYCTRPPYGDYGDYWGQGTLVTVSS
VL: QSALTQPASVSGSPGQSITISCTGTSSDVGGYNLVSWYQQHPGKAPKLMIYEGNKRPSGVSNRFSGSKSGNTASLTISGLQAEDEADYYCCSYAGSSTFPVVFGGGTKLTVL
On to B1, for which the Kd (usually a measure of binding affinity in units of concentration) in [1] worked out at 0.0148 µM; in experiment [2], 2.98 µM. Moreover, the “ELISA (Avg)” value in experiment [3] and in [5] was 17.9 in each case. In addition, inhibition in experiment [4] was half-maximal at 0.0322 µM (IC50).

B2: 4-124 (antibody, V domains shown)
VH: EVQLVESGGGLVQPGGSLRLSCAASGNIFTRNVMGWFRQAPGKEREFVAAITSSGSTNYADSVKGRFTISADNSKNTAYLQMNSLKPEDTAVYYCARPSSDLQGGVDYWGQGTLVTVSS
As for B2, the IC50 (as a rule, the point on the concentration scale where inhibition reaches its midpoint) in the experiment with human ACE2 was 0.0544 µM.

B3: 4-139 (antibody, V domains shown)
VH: EVQLVESGGGLVQPGGSLRLSCAASGGGTFGSYAMGWFRQAPGKEREFVAAISIASGASGGTTNYADSVKGRFTISADNSKNTAYLQMNSLKPEDTAVYYCATTMNPNPRWGQGTLVTVSS
B3 registered an IC50 with human ACE2 of 0.0202 µM.

B4: 4-147 (antibody, V domains shown)
VH: EVQLVESGGGLVQPGGSLRLSCAASGGTFSVYAMGWFRQAPGKEREGVAAISMSGDDAAYADSVKGRFTISADNSKNTAYLQMNSLKPEDTAVYYCAKISKDDGGKPRGAFFDSWGQGTLVTVSS
Turning to B4, in the experiment with human ACE2, the IC50 came out at 0.0683 µM.

B5: 1-42 (antibody, V domains shown)
VH: EVQLLESGGGLVQPGGSLRLSCAASGVTFSSYAMSWVRQAPGKGLEWVSAITGSGGSTYYADSVKGRFTISRDNSKNTLYLQMNSLRAEDTAVYYCAKHGSGTIFGVVIAKYYFDYWGQGTLVTVSS
VL: QSALTQPASVSGSPGQSITISCTGTSSDVGRYNLVSWYQQHPGKAPKLMIYEGGKRPSGVSNRFSGSKSGNTASLTISGLQAEDEADYYCCSYASSSTLVFGGGTKLTVL
With B5, the half-maximal effective concentration (EC50) (as a rule, the concentration at which the effect is half-maximal) in experiment [6] amounted to 0.00792 µM. The dissociation constant (Kd) in experiment [7] was 0.364 µM.

B6: 1-29 (antibody, V domains shown)
VH: EVQLLESGGGLVQPGGSLRLSCAASGFTFSSYAMYWVRQAPGKGLEWVSAISGSAGSTYYADSVKGRFTISRDNSKNTLYLQMNSLRAEDTAVYYCARDTNDFWSGYSIFDPWGQGTLVTVSS
VL: QSALTQPASVSGSPGQSITISCTGTSSDIGSYNLVSWYQQHPGKAPKLMIYEGTKRPSGVSNRFSGSKSGNTASLTISGLQAEDEADYYCCSYAGSRTYVFGGGTKLTVL
As for B6, the equilibrium dissociation constant (Kd) in experiment [8] is 0.0361 µM; in experiment [9], 0.0193 µM. For the same molecule, the “ELISA (Avg)” value in experiment [3] and in experiment [5] was 23.8 throughout.

B7: 1-17 (antibody, V domains shown)
VH: EVQLLESGGGLVQPGGSLRLSCAASGFTFSSYAMYWVRQAPGKGLEWVSAISGSAGSTYYADSVKGRFTISRDNSKNTLYLQMNSLRAEDTAVYYCARDTNDFWSGYSIFDPWGQGTLVTVSS
VL: QSALTQPASVSGSPGQSITISCTGTSSDIGSYNLVSWYQQHPGKAPKLMIYEGTKRPSGVSNRFSGSKSGNTASLTISGLQAEDEADYYCCSYAGSRTYVFGGGTKLTVL
B7: the Kd in experiment [1] was 6.65 µM; in [9] it was 0.01 µM. The “ELISA (Avg)” value in experiment [3] and in experiment [5] was 27.4 in each case.

B8: 1-53 (antibody, V domains shown)
VH: EVQLLESGGGLVQPGGSLRLSCAASGFTFSSYTMSWVRQAPGKGLEWVSVISGSGGSTYYADSVKGRFTISRDNSKNTLYLQMNSLRAEDTAVYYCAREGYRDYLWYFDLWGQGTLVTVSS
VL: QSALTQPASVSGSPGQSITISCTGTSTDVGSYNLVSWYQQHPGKAPKLMIYEGTKRPSGVSNRFSGSKSGNTASLTISGLQAEDEADYYCCSYAGSYTSVVFGGGTKLTVL
As to B8, the “ELISA (Avg)” value in experiment [3] and in [5] was 21.7 each time. Further, the IC50 amounted to 1.43 µM in experiment [10] and 0.0143 µM with SARS-CoV-2 S1 RBD. The concentration giving a half-maximal response (EC50) in [6] is 0.0103 µM.

B9: 1-2 (antibody, V domains shown)
VH: EVQLLESGGGLVQPGGSLRLSCAASGFTFSSQAMSWVRQAPGKGLEWVSAISGSGGGTYYADSVKGRFTISRDNSKNTLYLQMNSLRAEDTAVYYCAKDRRFGEFDPWGQGTLVTVSS
VL: QSALTQPASVSGSPGQSITISCTGTSSGVGSYNLVSWYQQHPGKAPKLMIYEGIKRPSGVSNRFSGSKSGNTASLTISGLQAEDEADYYCCSYAGSSSFVVFGGGTKLTVL
In experiment [8], B9 showed a Kd of 0.304 µM. Further, the “ELISA (Avg)” value in [3] and in experiment [5] was 24.2 each time. In [6], the EC50 was 0.000523 µM.

B10: 1-27 (antibody, V domains shown)
VH: EVQLLESGGGLVQPGGSLRLSCAASGFTFSSYAMTWVRQAPGKGLEWVSAISGSGGGTYYADSVKGRFTISRDNSKNTLYLQMNSLRAEDTAVYYCASSSSWQFDYWGQGTLVTVSS
VL: QSALTQPASVSGSPGQSITISCTGTSSYVGHYNLVSWYQQHPGKAPKLMIYEGSRRPSGVSNRFSGSKSGNTASLTISGLQAEDEADYYCCSYAGSYTHYVFGGGTKLTVL
With B10, the results for the Kd in experiment [11], in [2] and in experiment [9] were 5.52 µM, 0.0096 µM and 0.0096 µM, respectively. Further, the “ELISA (Avg)” value in [3] and in experiment [5] was 27.2 throughout. The molecule further registered an EC50 in experiment [6] of 0.000148 µM.

B11: 1-12 (antibody, V domains shown)
VH: EVQLLESGGGLVQPGGSLRLSCAASGITFSSYAMSWVRQAPGKGLEWVSGISGSGGSTYYADSVKGRFTISRDNSKNTLYLQMNSLRAEDTAVYYCAKHGSGTIFGVVIAKYYFDYWGQGTLVTVSS
VL: QSALTQPASVSGSPGQSITISCTGTSSDVGHYNLVSWYQQHPGKAPKLMIYEGTKRPSGVSNRFSGSKSGNTASLTISGLQAEDEADYYCCSYAGSSSFVVFGGGTKLTVL
On to B11, for which the figures for the dissociation constant Kd in [2], in experiment [9] and in [7] were 0.0061 µM, 0.014 µM and 0.0061 µM, respectively. Moreover, the “ELISA (Avg)” value in experiment [3] and in [5] was 25.7 throughout. It took 0.033 µM to reach half-maximal inhibition in experiment [10] (IC50). Further, the EC50 in experiment [6] came to 0.00215 µM.

B12: 1-33 (antibody, V domains shown)
VH: EVQLLESGGGLVQPGGSLRLSCAASGFTFSSYAMIWVRQAPGKGLEWVSAISGSGGSTFYADSVKGRFTISRDNSKNTLYLQMNSLRAEDTAVYYCTRPPYGDYGDYWGQGTLVTVSS
VL: QSALTQPASVSGSPGQSITISCTGTSSDVGSYNLLSWYQQHPGKAPKLMIYEASKRPSGVSNRFSGSKSGNTASLTISGLQAEDEADYYCCSYAGSRTPVVFGGGTKLTVL
On to B12, for which the results for the Kd in experiment [1] and in experiment [12] were 0.0081 µM and 1740 µM, respectively. In addition, the “ELISA (Avg)” value in [3] and in experiment [5] was 17.6 throughout. Further, the 50% effective concentration (EC50) in experiment [6] was 0.0175 µM.

B13: 1-31 (antibody, V domains shown)
VH: EVQLLESGGGLVQPGGSLRLSCAASGFTFSSYAMNWVRQAPGKGLEWVSAISGSGGSTFYADSVKGRFTISRDNSKNTLYLQMNSLRAEDTAVYYCTRPPYGDYGDYWGQGTLVTVSS
VL: QSALTQPASVSGSPGQSITISCTGTSSDVGKYNLVSWYQQHPGKAPKLMIYEGSQRPSGVSNRFSGSKSGNTASLTISGLQAEDEADYYCCSYAGSRTPVVFGGGTKLTVL
On to B13, for which the Kd in [1] turned out to be 0.0144 µM; in experiment [2], 0.0175 µM. Also, the “ELISA (Avg)” value in experiment [3] and in experiment [5] was 20.7 throughout. For the same molecule, in experiment [10], the IC50 amounted to 0.0092 µM. The same molecule displayed an EC50 in [6] of 0.000203 µM.

B14: 4-119 (antibody, V domains shown)
VH: EVQLVESGGGLVQPGGSLRLSCAASGFAFSSYAMGWFRQAPGKEREWVATINGDDYTYYADSVKGRFTISADNSKNTAYLQMNSLKPEDTAVYYCVATPGGYGLWGQGTLVTVSS
Turning to B14, in the experiment with human ACE2, the midpoint of inhibition, the IC50, lay at 0.00437 µM.
